Data set [1] concerns the target YSA peptide (synthetic construct). The note with it: cited from earlier work.
Data set [2] concerns the target m-ephrinA1 (Homo sapiens) (UniProt P20827). The note with it: cited from earlier work.
Data set [3] deals with the molecule itself. In words: FRET or BRET; FSI-FRET (two-photon spectral imaging) between EphA2-mTurq and EphA2-eYFP in the plasma membrane of live HEK293T cells in hypo-osmotic medium; no ligand; dimer to monomers, two-dimensional constants in receptors per μm^2. For orientation: Bioluminescence resonance energy transfer reports proximity on the nanometre scale.

Chain of m-ephrinA1 (Homo sapiens) (P20827 19-182): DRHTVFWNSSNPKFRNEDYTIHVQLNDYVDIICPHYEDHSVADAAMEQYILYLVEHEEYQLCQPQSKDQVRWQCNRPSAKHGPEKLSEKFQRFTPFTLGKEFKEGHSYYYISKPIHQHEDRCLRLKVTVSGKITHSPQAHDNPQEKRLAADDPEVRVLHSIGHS

The Kd is the concentration at which binding is half-saturated. Regarding EphA2 (from UniProt P29317), the values for the dissociation constant (Kd) in data set [1] and in data set [2] were 200 nM and 25 nM, respectively.

B1: EphA2 L223R/L254R/V255R triple mutant, full-length, tagged at the C-terminus with mTurquoise or eYFP (receptor, UniProt P29317 24-976, looked up)
chain: AQGKEVVLLDFAAAGGELGWLTHPYGKGWDLMQNIMNDMPIYMYSVCNVMSGDQDNWLRTNWVYRGEAERIFIELKFTVRDCNSFPGGASSCKETFNLYYAESDLDYGTNFQKRLFTKIDTIAPDEITVSSDFEARHVKLNVEERSVGPLTRKGFYLAFQDIGACVALLSVRVYYKKCPELLQGLAHFPETIAGSDAPSRATVAGTCVDHAVVPPGGEEPRMHCAVDGEWRRPIGQCLCQAGYEKVEDACQACSPGFFKFEASESPCLECPEHTLPSPEGATSCECEEGFFRAPQDPASMPCTRPPSAPHYLTAVGMGAKVELRWTPPQDSGGREDIVYSVTCEQCWPESGECGPCEASVRYSEPPHGLTRTSVTVSDLEPHMNYTFTVEARNGVSGLVTSRSFRTASVSINQTEPPKVRLEGRSTTSLSVSWSIPPPQQSRVWKYEVTYRKKGDSNSYNVRRTEGFSVTLDDLAPDTTYLVQVQALTQEGQGAGSKVHEFQTLSPEGSGNLAVIGGVAVGVVLLLVLAGVGFFIHRRRKNQRARQSPEDVYFSKSEQLKPLKTYVDPHTYEDPNQAVLKFTTEIHPSCVTRQKVIGAGEFGEVYKGMLKTSSGKKEVPVAIKTLKAGYTEKQRVDFLGEAGIMGQFSHHNIIRLEGVISKYKPMMIITEYMENGALDKFLREKDGEFSVLQLVGMLRGIAAGMKYLANMNYVHRDLAARNILVNSNLVCKVSDFGLSRVLEDDPEATYTTSGGKIPIRWTAPEAISYRKFTSASDVWSFGIVMWEVMTYGERPYWELSNHEVMKAINDGFRLPTPMDCPSAIYQLMMQCWQQERARRPKFADIVSILDKLIRAPDSLKTLADFDPRVSIRLPSTSGSEGVPFRTVSEWLESIKMQQYTEHFMAAGYTAIEKVVQMTNDDIKRIGVRLPGHQKRIAYSLLGLKDQVNTVGIPI
As a reminder, the stoichiometry N is the number of molecules, sites or subunits per partner or assembly. With B1, the “stoichiometry N” value in data set [3] was found to be 2.

Values taken from paper PMC6123813 (Communications biology, 2018).
